From US20110300579A1 (UNIVERSITY OF SOUTHERN CALIFORNIA, published 2011)

Experiments:
[1] = biological target: soluble recombinant α5β1 integrin (R&D Systems) (UniProt P08648 42-995; P05556 21-728)
[2] = biological target: purified soluble αvβ3 integrin (Millipore) (UniProt P06756 31-992; P05106 27-718)
[3] = biological target: purified soluble αvβ5 integrin (Millipore) (UniProt P06756 31-992; P18084 24-719)
purified soluble αvβ5 integrin (Millipore), sequence (P06756 31-992, chain 1 of 2): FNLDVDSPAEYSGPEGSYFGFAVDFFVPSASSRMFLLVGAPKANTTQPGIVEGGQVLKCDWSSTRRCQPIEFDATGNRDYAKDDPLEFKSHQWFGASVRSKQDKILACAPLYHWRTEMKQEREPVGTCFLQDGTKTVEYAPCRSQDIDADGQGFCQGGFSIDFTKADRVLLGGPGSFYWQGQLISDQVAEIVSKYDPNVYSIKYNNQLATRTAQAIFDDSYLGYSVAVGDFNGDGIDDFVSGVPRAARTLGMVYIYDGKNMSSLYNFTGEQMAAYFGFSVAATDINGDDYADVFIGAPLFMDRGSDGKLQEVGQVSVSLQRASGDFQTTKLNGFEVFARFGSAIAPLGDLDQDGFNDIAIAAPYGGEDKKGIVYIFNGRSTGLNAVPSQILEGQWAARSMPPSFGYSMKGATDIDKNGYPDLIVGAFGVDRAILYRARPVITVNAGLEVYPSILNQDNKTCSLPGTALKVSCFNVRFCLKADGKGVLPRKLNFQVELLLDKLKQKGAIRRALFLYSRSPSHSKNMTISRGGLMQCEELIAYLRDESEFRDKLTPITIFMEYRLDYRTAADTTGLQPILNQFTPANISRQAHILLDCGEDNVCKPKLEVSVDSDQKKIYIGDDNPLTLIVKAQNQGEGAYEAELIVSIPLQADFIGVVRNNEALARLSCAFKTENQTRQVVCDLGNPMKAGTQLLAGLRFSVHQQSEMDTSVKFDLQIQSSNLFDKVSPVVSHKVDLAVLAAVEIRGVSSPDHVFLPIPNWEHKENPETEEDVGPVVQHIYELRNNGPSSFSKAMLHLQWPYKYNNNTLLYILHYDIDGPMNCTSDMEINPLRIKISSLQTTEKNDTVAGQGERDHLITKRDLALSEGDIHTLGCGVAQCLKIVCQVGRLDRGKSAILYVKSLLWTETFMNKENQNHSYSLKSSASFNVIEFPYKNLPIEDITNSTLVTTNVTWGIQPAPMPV
purified soluble αvβ5 integrin (Millipore), sequence (P18084 24-719, chain 2 of 2): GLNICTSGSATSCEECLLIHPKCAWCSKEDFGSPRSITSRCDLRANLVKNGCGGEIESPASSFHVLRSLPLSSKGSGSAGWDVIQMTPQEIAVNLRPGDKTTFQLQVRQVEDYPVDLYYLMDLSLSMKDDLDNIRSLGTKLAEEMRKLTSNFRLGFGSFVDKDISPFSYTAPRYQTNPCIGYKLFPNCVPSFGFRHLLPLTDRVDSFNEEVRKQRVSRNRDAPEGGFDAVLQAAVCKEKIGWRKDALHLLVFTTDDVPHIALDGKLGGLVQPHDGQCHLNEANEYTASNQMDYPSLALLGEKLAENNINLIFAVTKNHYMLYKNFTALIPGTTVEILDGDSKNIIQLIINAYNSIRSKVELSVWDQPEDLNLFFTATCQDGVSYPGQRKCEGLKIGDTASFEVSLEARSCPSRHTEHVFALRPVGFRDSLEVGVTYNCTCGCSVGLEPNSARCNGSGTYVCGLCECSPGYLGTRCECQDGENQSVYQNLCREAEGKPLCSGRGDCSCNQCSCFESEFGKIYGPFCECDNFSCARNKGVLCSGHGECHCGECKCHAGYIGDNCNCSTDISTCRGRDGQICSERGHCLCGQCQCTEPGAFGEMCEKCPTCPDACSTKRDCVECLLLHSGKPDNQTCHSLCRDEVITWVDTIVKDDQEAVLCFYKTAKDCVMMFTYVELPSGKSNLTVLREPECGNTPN

purified soluble αvβ3 integrin (Millipore), sequence (P06756 31-992, chain 1 of 2): as the sequence (P06756 31-992, chain 1 of 2) above
purified soluble αvβ3 integrin (Millipore), sequence (P05106 27-718, chain 2 of 2): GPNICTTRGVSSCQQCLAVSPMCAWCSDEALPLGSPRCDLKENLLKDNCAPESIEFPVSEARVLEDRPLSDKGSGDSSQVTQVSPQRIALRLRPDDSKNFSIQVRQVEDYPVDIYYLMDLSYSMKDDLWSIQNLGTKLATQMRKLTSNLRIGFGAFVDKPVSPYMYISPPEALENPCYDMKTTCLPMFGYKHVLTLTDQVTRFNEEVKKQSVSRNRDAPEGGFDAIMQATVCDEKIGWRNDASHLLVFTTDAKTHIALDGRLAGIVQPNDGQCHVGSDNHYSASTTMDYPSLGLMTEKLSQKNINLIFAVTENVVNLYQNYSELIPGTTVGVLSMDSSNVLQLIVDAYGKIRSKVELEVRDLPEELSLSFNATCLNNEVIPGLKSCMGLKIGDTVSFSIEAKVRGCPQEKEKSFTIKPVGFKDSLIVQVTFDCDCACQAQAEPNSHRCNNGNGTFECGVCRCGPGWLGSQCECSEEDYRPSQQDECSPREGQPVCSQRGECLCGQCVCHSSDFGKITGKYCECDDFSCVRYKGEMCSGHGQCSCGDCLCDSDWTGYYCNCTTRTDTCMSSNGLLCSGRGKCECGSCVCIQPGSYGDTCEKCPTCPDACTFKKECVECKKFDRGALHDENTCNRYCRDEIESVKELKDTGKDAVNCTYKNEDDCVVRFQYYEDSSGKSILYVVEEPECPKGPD
soluble recombinant α5β1 integrin (R&D Systems), sequence (P08648 42-995, chain 1 of 2): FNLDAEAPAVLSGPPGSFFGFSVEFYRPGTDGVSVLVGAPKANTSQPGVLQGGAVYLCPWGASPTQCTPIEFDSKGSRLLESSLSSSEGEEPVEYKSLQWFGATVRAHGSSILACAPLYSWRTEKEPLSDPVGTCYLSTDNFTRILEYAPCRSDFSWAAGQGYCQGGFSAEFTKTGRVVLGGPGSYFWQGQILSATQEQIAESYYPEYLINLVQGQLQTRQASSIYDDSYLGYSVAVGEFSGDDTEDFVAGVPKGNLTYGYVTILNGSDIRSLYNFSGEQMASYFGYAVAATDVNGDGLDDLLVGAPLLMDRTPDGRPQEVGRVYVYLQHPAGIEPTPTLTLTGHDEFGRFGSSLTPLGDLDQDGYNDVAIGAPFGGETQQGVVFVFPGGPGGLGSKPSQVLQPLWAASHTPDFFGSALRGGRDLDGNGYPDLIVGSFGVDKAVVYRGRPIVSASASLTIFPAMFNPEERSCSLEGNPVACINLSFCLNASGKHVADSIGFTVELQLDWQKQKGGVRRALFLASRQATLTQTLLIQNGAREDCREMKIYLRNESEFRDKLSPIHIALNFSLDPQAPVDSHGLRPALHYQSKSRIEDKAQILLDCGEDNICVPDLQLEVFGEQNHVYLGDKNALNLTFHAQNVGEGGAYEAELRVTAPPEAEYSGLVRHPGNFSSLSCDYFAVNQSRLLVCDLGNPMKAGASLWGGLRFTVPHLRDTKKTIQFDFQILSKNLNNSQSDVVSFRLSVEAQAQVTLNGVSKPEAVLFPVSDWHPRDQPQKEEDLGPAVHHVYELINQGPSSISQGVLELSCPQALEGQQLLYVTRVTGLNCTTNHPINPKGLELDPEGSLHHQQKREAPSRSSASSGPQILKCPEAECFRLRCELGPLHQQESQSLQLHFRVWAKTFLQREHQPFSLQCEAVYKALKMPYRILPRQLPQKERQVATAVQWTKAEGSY
soluble recombinant α5β1 integrin (R&D Systems), sequence (P05556 21-728, chain 2 of 2): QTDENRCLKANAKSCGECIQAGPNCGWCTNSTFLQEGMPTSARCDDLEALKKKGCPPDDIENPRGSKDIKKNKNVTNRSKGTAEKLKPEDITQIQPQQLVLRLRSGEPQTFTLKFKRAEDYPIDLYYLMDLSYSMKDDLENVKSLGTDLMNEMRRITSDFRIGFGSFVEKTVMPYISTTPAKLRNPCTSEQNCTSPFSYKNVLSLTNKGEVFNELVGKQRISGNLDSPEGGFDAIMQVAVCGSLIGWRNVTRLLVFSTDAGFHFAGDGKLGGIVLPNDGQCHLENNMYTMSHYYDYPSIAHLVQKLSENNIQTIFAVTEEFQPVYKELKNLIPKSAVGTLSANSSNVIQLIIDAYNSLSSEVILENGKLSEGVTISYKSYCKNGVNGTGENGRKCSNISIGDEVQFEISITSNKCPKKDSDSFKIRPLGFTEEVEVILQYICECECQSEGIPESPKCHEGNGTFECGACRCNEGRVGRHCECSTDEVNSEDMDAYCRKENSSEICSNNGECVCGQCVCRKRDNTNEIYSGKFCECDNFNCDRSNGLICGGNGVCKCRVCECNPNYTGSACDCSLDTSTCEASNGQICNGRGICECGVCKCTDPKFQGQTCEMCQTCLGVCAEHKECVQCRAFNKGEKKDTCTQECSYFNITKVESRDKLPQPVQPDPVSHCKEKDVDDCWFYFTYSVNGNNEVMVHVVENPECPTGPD

B1: Contortrostatin (CN), native, purified from Agkistrodon contortrix contortrix venom (ligand)
chain: DAPANPCCDAATCKLTTGSQCADGLCCDQCKFMKEGTVCRRARGDDLDDYCNGISAGCPRNPFH
- Kd [1]: 191 nM
- Kd [2]: 6.6 nM
- Kd [3]: 19.5 nM
